Reference: PMC4803055

Molecular target: T1, Mte1 (YGR042W) (Saccharomyces cerevisiae, UniProt P53227 1-271)
T1 sequence: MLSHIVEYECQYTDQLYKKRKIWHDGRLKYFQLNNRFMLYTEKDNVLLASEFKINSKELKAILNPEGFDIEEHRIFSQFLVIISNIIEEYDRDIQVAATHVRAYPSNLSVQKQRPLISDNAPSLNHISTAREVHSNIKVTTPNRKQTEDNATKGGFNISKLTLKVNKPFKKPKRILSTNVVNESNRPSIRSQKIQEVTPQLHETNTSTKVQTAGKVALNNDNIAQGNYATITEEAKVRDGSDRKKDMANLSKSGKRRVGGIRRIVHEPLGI
Assay: EMSA

AGCTATGACCATGATTACGAATTGCTTAATTCGTGCAGGCATGGTAGCT (ssDNA) [ssDNA (oligo 1)] gave a Kd of 16 ± 3 nM.
